The record followed here is the nanobody polyreactivity screen of Harvey et al. (2022).

A short description of this data set: yeast display, Sf9 membrane polyspecificity reagent, FACS + sequencing; frameworks hold sequencing errors. In outline: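 Nanobodies came from a synthetic yeast display library in Saccharomyces cerevisiae BJ5465, induced with galactose for 36–48 hours and stained for 1 hour at 4 °C with 10% biotinylated, detergent-solubilized Sf9 membrane reagent. Cells were enriched on streptavidin microbeads and then FACS-sorted, with low and high (top ~1%) gates set on anti-HA fluorescence for expression and streptavidin fluorescence for reagent binding. Each polyreactivity label reflects the gate a clone came from. Genes were amplified by colony PCR, sequenced by MiSeq 2 × 250 and filtered by CDR length.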
Turning to “QVQLVESGGGLVQAGGSLRLSCAASGLTFPTNAMGRYRQAHGKESQFVAAITSRGGTTYYADSVTGRFPISRDNAKNTVYLQMNSLKPEDTAVYYCAALSVTIDQSYRYGYWGQGTQVTVSS”, the “polyreactivity (PSR sort gate)” value was “low polyreactivity”.

As to “QVQLVESGGGLVQAGGSLRLSCAASGLTFPYYDMGWYRQAPGKERELVATITISGRTNYADSVKGRFTISRDNAKNTVYLQMNSLKPEDTAVYYCNARYRGRVYDRFGYWGQGTQVTVSS”, the “polyreactivity (PSR sort gate)” value is listed as “high polyreactivity”. As for “QVQLVESGGGLVQAGGSLRLSCAASGLTFQLYAMGWYRQAPGKERELVAAISGSGGRTYYADSVKGRFTISRDNGKNTVYLLMNRLKPEDTAVYYCAARPGSGRSYTSDYWGQGTQVTVSS”, the entry is “high polyreactivity”; as for “QVQLVESGGGLVQAGGSLRLSCAASGLTFQNNAMGWYRQAPGKERELVAAISDGGSTNYADSVKGRFTISRDNAKNTVYLQMNSLKPEDTAVYYCAAVYTSASYGSWGQGTQVTVSS”, “low polyreactivity”; as for “QVQLVESGGGLVQAGGSLRLSCAASGLTFQSYAMGWYRQAPGKERELVAAISRRSGSTYYADSVKGRFTISRDNAKNTVYLQMNSLKPEDTAVYYCTTRRGERGYWGQGTQVTVSS”, “high polyreactivity”. For “QVQLVESGGGLVQAGGSLRLSCAASGLTFQYKTMGRYRQAPGKEREFVAAITISGGTTYYADSVKGRFTISRDNAKTTVYLQMNSLKPEDTAVHYCAADFNSTERGTNMDYWGQGTQVTVSS”, the “polyreactivity (PSR sort gate)” value was “low polyreactivity”. As for “QVQLVESGGGLVQAGGSLRLSCAASGLTFQYYAMGWYRQAPGKDRELVAAISTSGGSTYYADSVKGRFTISRDYAKNTVYLQMNSLKPEDTAVYYCAARRGSQYWGQGTQVTVSS”, the entry is “high polyreactivity”; as for “QVQLVESGGGLVQAGGSLRLSCAASGLTFRDNAMGWYRQAPGKERELVAAISTNGGSTYYADSVKGRFTISRDNAKNTVYLQMNSLKPEDTAVYYCAKSFLTQYPQVDSDYWGQGTQVTVSS”, “low polyreactivity”. The value for “QVQLVESGGGLVQAGGSLRLSCAASGLTFRFYAMGWYRQAPGKERELVAVISGRGTSTYYADSVKGRFTISRDNAKNTVYLLMNSLKPEDTAVYYCAARYVAYAYVGNDYWGQGTQLTVSS” was “high polyreactivity”. The value for “QVQLVESGGGLVQAGGSLRLSCAASGLTFRLNAMGWYRHAPGKERELVAAITRGGRTNYADSVKGRFTISRDNAKNTVYLQMNSLKPEDTAVYYCAARYVERHTDYYYWGQGTQVTVSS” was “low polyreactivity”. For the sequence “QVQLVESGGGLVQAGGSLRLSCAASGLTFRLNAMGWYRQAPGKERELVAAITAIGDRTYYADSVKGRFTISRDNAKNTVYLQMNSLKPEDTAVYYCNVTPRRAQVRIGNYWGQGTQVTVSS”, the “polyreactivity (PSR sort gate)” value was “high polyreactivity”. As for “QVQLVESGGGLVQAGGSLRLSCAASGLTFRRYAMGWYRQAPGKVRELVAGISRGGSTYYADSVKGRFTISRDNAKNTVYLQMNSLKPEDTAVYYCAAYNRGTYPVQPVPYDMDYWGQGTQVTVSS”, the entry is “low polyreactivity”; as for “QVQLVESGGGLVQAGGSLRLSCAASGLTFRVYAMGWYRQAPGKERELVAAITGGGGSTYADSVKGRFTISRDNAKNTVYLQMNSLKPEDTAVYYCAAASPWDRDDYWGQGTQVTVSS”, “low polyreactivity”; as for “QVQLVESGGGLVQAGGSLRLSCAASGLTFRWYAMGWYRQAPGKERELVAAISSSGRTNYADSVKGRFTISRDNAKNTVYLQMNSLKPEDTAVYYCAADSSWRTSDYWGQGTQVTVSS”, “low polyreactivity”.

Regarding “QVQLVESGGGLVQAGGSLRLSCAASGLTFRWYAMGWYRRAPGKERELVAAISSGGSTNYADSVKGRFTISRDNAKNTVYLQMNSLKPEDTAVYYCNAKGRPWFKYDYWGQGTQVTVSS”, the “polyreactivity (PSR sort gate)” value is reported as “high polyreactivity”. As for “QVQLVESGGGLVQAGGSLRLSCAASGLTFRYYAMGWYRQAPGKERELVAAINYSGGGTYYADSVKGRFTISRDNAKNTVYLQMNSLKPEDTAVYYCNAAYRGYYYWGQGTQVTVSS”, the entry is “high polyreactivity”. As for “QVQLVESGGGLVQAGGSLRLSCAASGLTFRYYAMGWYRQAPGKERELVAAITGSGGSTYYADSVKGRFTISRDNAKNTVYLQMNSLKPEDTAVYYCADVIAEYDYFSYYYEYDYWGQGTQVTVSS”, the “polyreactivity (PSR sort gate)” value was “high polyreactivity”. As for “QVQLVESGGGLVQAGGSLRLSCAASGLTFRYYAMGWYRQAPGKERELVAAITRRGSTYYADSVKGRFTISRDNAKNTVYLQMISLKPEDTAVYYCATVTGFHSSPLRDLDYWGQGTQVTVSS”, the entry is “high polyreactivity”; as for “QVQLVESGGGLVQAGGSLRLSCAASGLTFRYYAMGWYRQAPGKERELVAAITRRGSTYYADSVKGRFTISRDNAKNTVYLQMNCLKPEDTAVYYCATVTGFHSSPLRDLDYWGQGTQVTVSS”, “high polyreactivity”; as for “QVQLVESGGGLVQAGGSLRLSCAASGLTFRYYSMGWYSQAPGKERELVASISWSGASTYYADSVKGRFTISRDNAKNTVYLQMNSLKPEDTGVYYCNAGYYGSYDYWGQGTQVTVSS”, “high polyreactivity”. In the case of “QVQLVESGGGLVQAGGSLRLSCAASGLTFRYYTMGWYRQAPGKERELVAAISRTVGSTYYADSVKGRFTISRDNAKNTVYLQMNSLKPEDTAVYYCAAKYEQYSPAVIYYYWGQGTQVTVSS”, the “polyreactivity (PSR sort gate)” value was “high polyreactivity”. The value for “QVQLVESGGGLVQAGGSLRLSCAASGLTFSAYAMGWYRQAPGKERELVAAITSSGGSTYADSVKGRFTISRDNAKNTVYLQMNSLKPEDTAVYYCNADLGDYGWYSSYDYWGQGTQVTVSS” was “low polyreactivity”; that for “QVQLVESGGGLVQAGGSLRLSCAASGLTFSAYAMGWYRQAPGKERELVAAITSSGGSTYADSVKGRFTLSRDNAKNTVYLQMNSRKPEDTAVYYCNADLGDYGWYSSYDYWGQGNQVTVSS” was “low polyreactivity”. As for “QVQLVESGGGLVQAGGSLRLSCAASGLTFSGNVMGCYIQAPGKERELVAAIDRSGGSTYYADSVKGRFTISRDNAKNTVYLQMNSLKPEDTAVYYCAVSSYPNHSRSWDDYWGQGTQVTVSS”, the entry is “low polyreactivity”; as for “QVQLVESGGGLVQAGGSLRLSCAASGLTFSHYAMGWYRQAPGKERELVAGISSRGGNTYYADSVKGRFTISRDNAKNTVYLQMNSLKPEDTAVYYCATPRSRTDGYDYWGQGTQVTVSS”, “high polyreactivity”. The value for “QVQLVESGGGLVQAGGSLRLSCAASGLTFSIYAMGWYRQAPGKERELVAAISWSGGSTYYADSVKGRFTISRDNAKNTVYLQMNSLKPEDTAVYYCAARVYRPWWRYDYWGQGTQVTVSS” was “high polyreactivity”; that for “QVQLVESGGGLVQAGGSLRLSCAASGLTFSIYAMGWYRQAPGKERELVAGISQSGGSTYADSVKGRFTISRDNAKNTVYLQMNSLKPADTAVYYCAKEFEWVGSPSTVDGLDYWGHGTQVTVSS” was “low polyreactivity”. Consider “QVQLVESGGGLVQAGGSLRLSCAASGLTFSRNAMGWYRQAPGKERELFATINSGGRTNYADSVKGRFTISRDNAKNTVYLQMNSQKPEDTAVYYCAVRTYSNYRAIVPYCRYDYWGQGTQVTVSS”, for which the “polyreactivity (PSR sort gate)” value is “high polyreactivity”. The value for “QVQLVESGGGLVQAGGSLRLSCAASGLTFSRNTMGWYRQAPGKERELVDTIDRGGRTNYADSVKGRFTISRDNAKNTVYLQMNSLKPEDTAVYYCATDASFYDPDLYPYGYDYWGQGTQVTVSS” was “high polyreactivity”; that for “QVQLVESGGGLVQAGGSLRLSCAASGLTFSYYAMGWYRQAPGKERELVAAITSGGNTNYADSVKGRFTISRDNAKNTVYLQMNSLKPEDTAVYYCAARFYFTRSFPRKFYYWGQGTQVTVSS” was “high polyreactivity”. As for “QVQLVESGGGLVQAGGSLRLSCAASGLTFSYYVMGWYRQAPGKVRELVAAISSGGSTNYADSVKGRFTMSRDNAKNTVYLQLNSLKPEDTAVYYCAARNARADKQCTRWRNYWGQGTQVTVSS”, the entry is “low polyreactivity”. On to “QVQLVESGGGLVQAGGSLRLSCAASGLTFTGYAMGWYRQATGKERELVASISRSGASTFYADSVKGRFTISRDNAKNTVYLQMNSLKPEDTAVYYCAAVPGWLTSRYYYWGQGTQVTVSS”, for which the “polyreactivity (PSR sort gate)” value is given as “high polyreactivity”.

Turning to “QVQLVESGGGLVQAGGSLRLSCAASGLTFTLYTMGWYRQAPGKEREFVAVISGTGGRTYYADSVKGRFTISRDNAKNTVYLQMNSLKPEDTAVYYCATCYSFRYWGQGTQVTVSS”, the “polyreactivity (PSR sort gate)” value is “high polyreactivity”. The value for “QVQLVESGGGLVQAGGSLRLSCAASGLTFTSYVMGWYRQAPGKERELVAAIRWSGGRTYYADSVKGRFTISRDNAKNTVYLQMNSLKPEDTAVYYCAAQWYSGSHGYYYWGQGTQVTVSS” was “high polyreactivity”; that for “QVQLVESGGGLVQAGGSLRLSCAASGLTFTVYGMGWSRQAPGKEREFVATISRRGGRTYYADSVKGRFTISRDNAKNTVYVLLNSLKPEDTAVYYCNADIGTYVRSGGGDYWGQGTQVTVSS” was “low polyreactivity”; that for “QVQLVESGGGLVQAGGSLRLSCAASGLTFTYNAMGGYRQAPGKERELVAAITSGGNTNYADSVKGRFTISRDNAKNTVYLQMKSLKPEDTAVYYCATDRKNGISGRYGYWGQGTQVTVSS” was “low polyreactivity”. Take “QVQLVESGGGLVQAGGSLRLSCAASGLTFVAYAMGWYRQAPGKERELVASISSRTGGTSYADSVKGRFTISRDNAKNTVYLQMNSLKPEDTAVYYCNAAARRYTSVFYTSGYTFDYWGQGTQVTVSS”: the “polyreactivity (PSR sort gate)” value is recorded as “low polyreactivity”.

“QVQLVESGGGLVQAGGSLRLSCAASGLTFVFYAMGWYRQAPGKERELVAAISWSTGRTYYADSVKGRFTISRDNAKNTVYLQMNSLKPEGTAVYYCAASYLGRKYDYWGQGTQVTVSS”: the “polyreactivity (PSR sort gate)” value is on record as “high polyreactivity”. The value for “QVQLVESGGGLVQAGGSLRLSCAASGLTFVKNVMGWYRQAPGKERELVAAISRRGGSTYSADSVKGRFTISRDNAKNTVYLQMNSLQPADTAVYYCAARTPSPTRPQYYYWGQGTQVTVSS” was “high polyreactivity”; that for “QVQLVESGGGLVQAGGSLRLSCAASGLTFVLYAMGWYRQAPGKERELVAAISKRGGSTNYADSVKGRFTISRDIAKNTVYLQMNSLKPEDTAVYYCAARYPQGGTGKATYVRSRSGYWGQGTKVTVSS” was “high polyreactivity”. The value for “QVQLVESGGGLVQAGGSLRLSCAASGLTFVLYAMGWYRQAPGQERELVAAISKRGGSTNYADSVKGRFTISRDNAKNTVYLQMNSLKPADTAVYYCAPRYPQGGTGKATYVRSRSGYWGQGTQVTVSS” was “high polyreactivity”.
